Experimental data as given in patent publication US20230250154A1 (CYTONICS, published 2023).

T1: ADAMTS5 (human, UniProt Q9UNA0 262-622, limits assumed)
T1 sequence (looked up): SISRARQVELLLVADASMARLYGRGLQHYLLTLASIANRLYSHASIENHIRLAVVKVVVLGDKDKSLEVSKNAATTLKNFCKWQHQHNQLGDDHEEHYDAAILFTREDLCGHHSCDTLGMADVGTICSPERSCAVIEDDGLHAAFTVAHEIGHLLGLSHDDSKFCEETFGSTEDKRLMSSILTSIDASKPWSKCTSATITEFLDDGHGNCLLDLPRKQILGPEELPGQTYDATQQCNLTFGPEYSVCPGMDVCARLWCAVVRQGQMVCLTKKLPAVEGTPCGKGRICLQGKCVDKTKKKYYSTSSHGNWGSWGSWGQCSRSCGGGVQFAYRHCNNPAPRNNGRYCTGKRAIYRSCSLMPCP

T2: ADAMTS4 (human, UniProt O75173 213-685, limits assumed)
T2 sequence (looked up): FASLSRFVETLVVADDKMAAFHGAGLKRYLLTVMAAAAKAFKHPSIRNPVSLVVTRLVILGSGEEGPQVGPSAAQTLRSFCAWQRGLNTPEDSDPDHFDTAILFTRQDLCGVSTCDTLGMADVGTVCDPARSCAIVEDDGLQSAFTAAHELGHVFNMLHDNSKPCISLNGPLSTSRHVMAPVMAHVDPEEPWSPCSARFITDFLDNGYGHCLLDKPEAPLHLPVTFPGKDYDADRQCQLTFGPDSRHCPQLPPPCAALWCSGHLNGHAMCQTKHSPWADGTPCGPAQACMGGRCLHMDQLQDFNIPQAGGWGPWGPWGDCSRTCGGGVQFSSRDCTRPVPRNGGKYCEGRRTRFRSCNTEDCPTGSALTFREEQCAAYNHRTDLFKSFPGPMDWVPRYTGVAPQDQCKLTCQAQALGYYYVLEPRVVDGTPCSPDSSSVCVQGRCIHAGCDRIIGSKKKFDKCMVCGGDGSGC


Legend:
Test in all cases: cell-based or functional assay
ADAMTS5 = target: T1, ADAMTS5
MMP13 = MMP13 (human, UniProt P45452 104-471, limits assumed)
ADAMTS4 = target: T2, ADAMTS4

Protease Inhibition (% of WT) (ADAMTS5)	Protease Inhibition (% of WT) (MMP13)	Protease Inhibition (% of WT) (ADAMTS4)	Binder
272 % of WT	79 % of WT	153 % of WT	Variant A2M, bait region SEQ ID NO 95 (other) SVSGKPQYMVLVPSLLHTETTEKGCVLLSYLNETVTVSASLESVRGNRSLFTDLEAENDVLHCVAFAVPKSSSNEEVMFLTVQVKGPTQEFKKRTTVMVKNEDSLVFVQTDKSIYKPGQTVKFRVVSMDENFHPLNELIPLVYIQDPKGNRIAQWQSFQLEGGLKQFSFPLSSEPFQGSYKVVVQKKSGGRTEHPFTVEEFVLPKFEVQVTVPKIITILEEEMNVSVCGLYTYGKPVPGHVTVSICRKYSDASDCHGEDSQAFCEKFSGQLNSHGCFYQQVKTKVFQLKRKEYEMKLHTEAQIQEEGTVVELTGRQSSEITRTITKLSFVKVDSHFRQGIPFFGQVRLVDGKGVPIPNKVIFIRGNEANYYSNATTDEHGLVQFSINTTNVMGTSLTVRVNYKDRSPCYGYQWVSEEHEEAHHTAYLVFSPSKSFVHLEPMSHELPCGHTQTVQAHYILNGGTLLGLKKLSFYYLIMAKGGIVRTGTHGLLVKQEDMKGHFSISIPVKSDIAPVARLLIYAVLPTGDVIGDSAKYDVENCLANKVDLSFSPSQSLPASHAHLRVTAAPQSVCALRAVDQSVLLMKPDAELSASSVYNLLPEKDLTGFPGPLNDQDDEDCINRHNVYINGITYTPVSSTNEKDMYSFLEDMGLKAFTNSKIRKPKMCPQLEQYEMHGPEGLRVGTSEDLVVQFYESDVMGRGHARLVHVEEPHTKLLRKYFPETWIWDLVVVNSAGVAEVGVTVPDTITEWKAGAFCLSEDAGLGISSTASLRAFQPFFVELTMPYSVIRGEAFTLKATVLNYLPKCIRVSVQLEASPAFLAVPVEKEQAPHCICANGRQTVSWAVTPKSLGNVNFTVSAEALESQELCGTEVPSVPEHGRKDTVIKPLLVEPEGLEKETTFNSLLCPSGGEVSEELSLKLPPNVVEESARASVSVLGDILGSAMQNTQNLLQMPYGCGEQNMVLFAPNIYVLDYLNETQQLTPEIKSKAIGYLNTGYQRQLNYKHYDGSYSTFGERYGRNQGNTWLTAFVLKTFAQARAYIFIDEAHITQALIWLSQRQKDNGCFRSSGSLLNNAIKGGVEDEVTLSAYITIALLEIPLTVTHPVVRNALFCLESAWKTAQEGDHGSHVYTKALLAYAFALAGNQDKRKEVLKSLNEEAVKKDNSVHWERPQKPKAPVGHFYEPQAPSAEVEMTSYVLLAYLTAQPAPTSEDLTSATNIVKWITKQQNAQGGFSSTQDTVVALHALSKYGAATFTRTGKAAQVTIQSSGTFSSKFQVDNNNRLLLQQVSLPELPGEYSMKVTGEGCVYLQTSLKYNILPEKEEFPFALGVQTLPQTCDEPKAHTSFQISLSVSYTGSRSASNMAIVDVKMVSGFIPLKPTVKMLERSNHVSRTEVSSNHVLIYLDKVSNQTLSLFFTVLQDVPVRDLKPAIVKVYDYYETDEFAIAEYNAPCSKDLGNADYKDDDDKGASHHHHHH
128 % of WT	116 % of WT	131 % of WT	Variant A2M, bait region SEQ ID NO 97 (other) SVSGKPQYMVLVPSLLHTETTEKGCVLLSYLNETVTVSASLESVRGNRSLFTDLEAENDVLHCVAFAVPKSSSNEEVMFLTVQVKGPTQEFKKRTTVMVKNEDSLVFVQTDKSIYKPGQTVKFRVVSMDENFHPLNELIPLVYIQDPKGNRIAQWQSFQLEGGLKQFSFPLSSEPFQGSYKVVVQKKSGGRTEHPFTVEEFVLPKFEVQVTVPKIITILEEEMNVSVCGLYTYGKPVPGHVTVSICRKYSDASDCHGEDSQAFCEKFSGQLNSHGCFYQQVKTKVFQLKRKEYEMKLHTEAQIQEEGTVVELTGRQSSEITRTITKLSFVKVDSHFRQGIPFFGQVRLVDGKGVPIPNKVIFIRGNEANYYSNATTDEHGLVQFSINTTNVMGTSLTVRVNYKDRSPCYGYQWVSEEHEEAHHTAYLVFSPSKSFVHLEPMSHELPCGHTQTVQAHYILNGGTLLGLKKLSFYYLIMAKGGIVRTGTHGLLVKQEDMKGHFSISIPVKSDIAPVARLLIYAVLPTGDVIGDSAKYDVENCLANKVDLSFSPSQSLPASHAHLRVTAAPQSVCALRAVDQSVLLMKPDAELSASSVYNLLPEKDLTGFPGPLNDQDDEDCINRHNVYINGITYTPVSSTNEKDMYSFLEDMGLKAFTNSKIRKPKMCPQLEQYEMHGPEGLRVGGEEGVEEGFYESDVMGRGHARLVHVEEPHTKLLRKYFPETWIWDLVVVNSAGVAEVGVTVPDTITEWKAGAFCLSEDAGLGISSTASLRAFQPFFVELTMPYSVIRGEAFTLKATVLNYLPKCIRVSVQLEASPAFLAVPVEKEQAPHCICANGRQTVSWAVTPKSLGNVNFTVSAEALESQELCGTEVPSVPEHGRKDTVIKPLLVEPEGLEKETTFNSLLCPSGGEVSEELSLKLPPNVVEESARASVSVLGDILGSAMQNTQNLLQMPYGCGEQNMVLFAPNIYVLDYLNETQQLTPEIKSKAIGYLNTGYQRQLNYKHYDGSYSTFGERYGRNQGNTWLTAFVLKTFAQARAYIFIDEAHITQALIWLSQRQKDNGCFRSSGSLLNNAIKGGVEDEVTLSAYITIALLEIPLTVTHPVVRNALFCLESAWKTAQEGDHGSHVYTKALLAYAFALAGNQDKRKEVLKSLNEEAVKKDNSVHWERPQKPKAPVGHFYEPQAPSAEVEMTSYVLLAYLTAQPAPTSEDLTSATNIVKWITKQQNAQGGFSSTQDTVVALHALSKYGAATFTRTGKAAQVTIQSSGTFSSKFQVDNNNRLLLQQVSLPELPGEYSMKVTGEGCVYLQTSLKYNILPEKEEFPFALGVQTLPQTCDEPKAHTSFQISLSVSYTGSRSASNMAIVDVKMVSGFIPLKPTVKMLERSNHVSRTEVSSNHVLIYLDKVSNQTLSLFFTVLQDVPVRDLKPAIVKVYDYYETDEFAIAEYNAPCSKDLGNADYKDDDDKGASHHHHHH
82 % of WT	148 % of WT	124 % of WT	Variant A2M, bait region SEQ ID NO 98 (other) SVSGKPQYMVLVPSLLHTETTEKGCVLLSYLNETVTVSASLESVRGNRSLFTDLEAENDVLHCVAFAVPKSSSNEEVMFLTVQVKGPTQEFKKRTTVMVKNEDSLVFVQTDKSIYKPGQTVKFRVVSMDENFHPLNELIPLVYIQDPKGNRIAQWQSFQLEGGLKQFSFPLSSEPFQGSYKVVVQKKSGGRTEHPFTVEEFVLPKFEVQVTVPKIITILEEEMNVSVCGLYTYGKPVPGHVTVSICRKYSDASDCHGEDSQAFCEKFSGQLNSHGCFYQQVKTKVFQLKRKEYEMKLHTEAQIQEEGTVVELTGRQSSEITRTITKLSFVKVDSHFRQGIPFFGQVRLVDGKGVPIPNKVIFIRGNEANYYSNATTDEHGLVQFSINTTNVMGTSLTVRVNYKDRSPCYGYQWVSEEHEEAHHTAYLVFSPSKSFVHLEPMSHELPCGHTQTVQAHYILNGGTLLGLKKLSFYYLIMAKGGIVRTGTHGLLVKQEDMKGHFSISIPVKSDIAPVARLLIYAVLPTGDVIGDSAKYDVENCLANKVDLSFSPSQSLPASHAHLRVTAAPQSVCALRAVDQSVLLMKPDAELSASSVYNLLPEKDLTGFPGPLNDQDDEDCINRHNVYINGITYTPVSSTNEKDMYSFLEDMGLKAFTNSKIRKPKMCPQLEQYEMHGPEGLRVGGARGLEGFYESDVMGRGHARLVHVEEPHTKLRKYFPETWIWDLVVVNSAGVAEVGVTVPDTITEWKAGAFCLSEDAGLGISSTASLRAFQPFFVELTMPYSVIRGEAFTLKATVLNYLPKCIRVSVQLEASPAFLAVPVEKEQAPHCICANGRQTVSWAVTPKSLGNVNFTVSAEALESQELCGTEVPSVPEHGRKDTVIKPLLVEPEGLEKETTFNSLLCPSGGEVSEELSLKLPPNVVEESARASVSVLGDILGSAMQNTQNLLQMPYGCGEQNMVLFAPNIYVLDYLNETQQLTPEIKSKAIGYLNTGYQRQLNYKHYDGSYSTFGERYGRNQGNTWLTAFVLKTFAQARAYIFIDEAHITQALIWLSQRQKDNGCFRSSGSLLNNAIKGGVEDEVTLSAYITIALLEIPLTVTHPVVRNALFCLESAWKTAQEGDHGSHVYTKALLAYAFALAGNQDKRKEVLKSLNEEAVKKDNSVHWERPQKPKAPVGHFYEPQAPSAEVEMTSYVLLAYLTAQPAPTSEDLTSATNIVKWITKQQNAQGGFSSTQDTVVALHALSKYGAATFTRTGKAAQVTIQSSGTFSSKFQVDNNNRLLLQQVSLPELPGEYSMKVTGEGCVYLQTSLKYNILPEKEEFPFALGVQTLPQTCDEPKAHTSFQISLSVSYTGSRSASNMAIVDVKMVSGFIPLKPTVKMLERSNHVSRTEVSSNHVLIYLDKVSNQTLSLFFTVLQDVPVRDLKPAIVKVYDYYETDEFAIAEYNAPCSKDLGNADYKDDDDKGASHHHHHH
